According to publication PMC12667553 (2025):

Target: His6-tagged YAP, purified (immobilised in BLI) (UniProt P46937 1-504)
Assay: BLI

Chain of His6-tagged YAP, purified (immobilised in BLI) (P46937 whole entry): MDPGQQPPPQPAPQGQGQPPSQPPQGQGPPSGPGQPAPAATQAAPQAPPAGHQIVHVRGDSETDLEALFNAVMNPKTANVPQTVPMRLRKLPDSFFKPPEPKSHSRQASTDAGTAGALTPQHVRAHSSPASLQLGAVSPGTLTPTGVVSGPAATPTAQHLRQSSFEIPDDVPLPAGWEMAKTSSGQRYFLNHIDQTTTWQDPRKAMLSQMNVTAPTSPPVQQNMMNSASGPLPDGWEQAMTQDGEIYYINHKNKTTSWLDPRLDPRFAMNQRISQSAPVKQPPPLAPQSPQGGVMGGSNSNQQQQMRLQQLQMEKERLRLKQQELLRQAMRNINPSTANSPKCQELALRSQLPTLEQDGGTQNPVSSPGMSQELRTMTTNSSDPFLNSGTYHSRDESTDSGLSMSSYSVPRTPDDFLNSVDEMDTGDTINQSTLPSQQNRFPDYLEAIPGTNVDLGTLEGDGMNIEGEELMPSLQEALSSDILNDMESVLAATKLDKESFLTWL

B1: recombinant TWF2, purified (BLI analyte) (natural protein)
chain: MAHQTGIHATEELKEFFAKARAGSVRLIKVVIEDEQLVLGASQEPVGRWDQDYDRAVLPLLDAQQPCYLLYRLDSQNAQGFEWLFLAWSPDNSPVRLKMLYAATRATVKKEFGGGHIKDELFGTVKDDLSFAGYQKHLSSCAAPAPLTSAERELQQIRINEVKTEISVESKHQTLQGLAFPLQPEAQRALQQLKQKMVNYIQMKLDLERETIELVHTEPTDVAQLPSRVPRDAARYHFFLYKHTHEGDPLESVVFIYSMPGYKCSIKERMLYSSCKSRLLDSVEQDFHLEIAKKIEIGDGAELTAEFLYDEVHPKQHAFKQAFAKPKGPGGKRGHKRLIRGPGENGDDS
B1 gave a Kd of 7.9 µM.
